We go through one substance from patent publication US20140328939A1, “METHOD FOR PREPARING BIOCOMPATIBLE SMALL INTESTINAL MUCOSA HYDROGEL CAPABLE OF CONTROLLING IN-VIVO DEGRADATION PERIOD” (AJOU UNIVERSITY INDUSTRY-ACADEMIC COOPERATION FOUNDATION, priority 2011, published 2014).

This series is described as follows: In-vivo drug release test (FITC-labeled albumin). The note with it: 0.5 mL subcutaneous, SD rats; FITC-BSA 1 mg/mL. The method, then:
The prepared small intestinal submucosa powder was dissolved in phosphate buffered saline to 10, 15 and 20 wt %, respectively, to prepare homogeneous solutions. Then, FITC-labeled albumin (FITC-BSA) was added to a concentration of 1 mg/mL. 0.5 mL of the albumin-containing small intestine submucosa solutions were subcutaneously injected to nine SD rats (male, 8 weeks old, 350-380 g) using a syringe (21 G, 1-cc needle). For comparison, 0.5 mL of a solution containing FITC-labeled albumin of the same concentration was subcutaneously injected to three rats. When only albumin was subcutaneously injected, the drug was not released any more after 1 day. In contrast, in case of the albumin-containing small intestinal submucosa hydrogel, the drug was continuously released for about 9 days.

Where only a bound is given, the exact number is not on record here.

Regarding “albumin: FITC-labeled albumin (FITC-BSA) solution, model drug injected alone for comparison”, the “duration of drug release (albumin concentration in blood)” value is reported as not above 1 days.
